Measurements taken from patent US20100015637A1 (AbbVie / Abbott, published 2010).

Key:
[1] = target: CHO human PlGF-1 comprising amino acids 1-137 (human PlGF-1-His (1-131), CHO 6305) (human) (UniProt P49763); assay: … sandwich, capture MAb04, detection pAb264; antigen 1500 pg/mL
[2] = target: human PlGF-1 comprising amino acids 1-137 produced in human embryonic kidney cells (human) (UniProt P49763); assay: as above
[3] = target: human PlGF-1 fragment (comprising amino acids 17-131) produced in human embryonic kidney cells (human) (UniProt P49763); assay: as above
[4] = target: CHO human PlGF-1 fragment (comprising amino acids 17-131; ATCC PTA-8540) (human) (UniProt P49763); assay: as above
[5] = target: recombinant human PlGF-1 (comprising amino acids 1-131) expressed in E. coli (R&D Systems) (human) (UniProt P49763); assay: as above
[6] = target: CHO human PlGF-1 comprising amino acids 1-137 (human PlGF-1-His (1-131), CHO 6305) (human) (UniProt P49763); assay: … sandwich, capture MAb04, detection pAb264; antigen 0 pg/mL (blank)
[7] = target: human PlGF-1 comprising amino acids 1-137 produced in human embryonic kidney cells (human) (UniProt P49763); assay: as above
[8] = target: human PlGF-1 fragment (comprising amino acids 17-131) produced in human embryonic kidney cells (human) (UniProt P49763); assay: as above
[9] = target: CHO human PlGF-1 fragment (comprising amino acids 17-131; ATCC PTA-8540) (human) (UniProt P49763); assay: as above
[10] = target: recombinant human PlGF-1 (comprising amino acids 1-131) expressed in E. coli (R&D Systems) (human) (UniProt P49763); assay: as above
[11] = target: CHO human PlGF-1 comprising amino acids 1-137 (human PlGF-1-His (1-131), CHO 6305) (human) (UniProt P49763); assay: … sandwich, capture MAb04, detection pAb264; antigen 250 pg/mL
[12] = target: human PlGF-1 comprising amino acids 1-137 produced in human embryonic kidney cells (human) (UniProt P49763); assay: as above
[13] = target: human PlGF-1 fragment (comprising amino acids 17-131) produced in human embryonic kidney cells (human) (UniProt P49763); assay: as above
[14] = target: CHO human PlGF-1 fragment (comprising amino acids 17-131; ATCC PTA-8540) (human) (UniProt P49763); assay: as above
[15] = target: recombinant human PlGF-1 (comprising amino acids 1-131) expressed in E. coli (R&D Systems) (human) (UniProt P49763); assay: as above
[16] = target: CHO human PlGF-1 comprising amino acids 1-137 (human PlGF-1-His (1-131), CHO 6305) (human) (UniProt P49763); assay: … sandwich, capture MAb04, detection pAb264; antigen 15 pg/mL
[17] = target: human PlGF-1 comprising amino acids 1-137 produced in human embryonic kidney cells (human) (UniProt P49763); assay: as above
[18] = target: human PlGF-1 fragment (comprising amino acids 17-131) produced in human embryonic kidney cells (human) (UniProt P49763); assay: as above
[19] = target: CHO human PlGF-1 fragment (comprising amino acids 17-131; ATCC PTA-8540) (human) (UniProt P49763); assay: as above
[20] = target: recombinant human PlGF-1 (comprising amino acids 1-131) expressed in E. coli (R&D Systems) (human) (UniProt P49763); assay: as above
[21] = target: CHO human PlGF-1 comprising amino acids 1-137 (human PlGF-1-His (1-131), CHO 6305) (human) (UniProt P49763); assay: … sandwich, capture MAb04, detection pAb264; antigen 60 pg/mL
[22] = target: human PlGF-1 comprising amino acids 1-137 produced in human embryonic kidney cells (human) (UniProt P49763); assay: as above
[23] = target: human PlGF-1 fragment (comprising amino acids 17-131) produced in human embryonic kidney cells (human) (UniProt P49763); assay: as above
[24] = target: CHO human PlGF-1 fragment (comprising amino acids 17-131; ATCC PTA-8540) (human) (UniProt P49763); assay: as above
[25] = target: recombinant human PlGF-1 (comprising amino acids 1-131) expressed in E. coli (R&D Systems) (human) (UniProt P49763); assay: as above
[26] = target: CHO human PlGF-1 comprising amino acids 1-137 (human PlGF-1-His (1-131), CHO 6305) (human) (UniProt P49763); assay: … sandwich, capture MAb04, detection pAb264; antigen 750 pg/mL
[27] = target: human PlGF-1 comprising amino acids 1-137 produced in human embryonic kidney cells (human) (UniProt P49763); assay: as above
[28] = target: human PlGF-1 fragment (comprising amino acids 17-131) produced in human embryonic kidney cells (human) (UniProt P49763); assay: as above
[29] = target: CHO human PlGF-1 fragment (comprising amino acids 17-131; ATCC PTA-8540) (human) (UniProt P49763); assay: as above
[30] = target: recombinant human PlGF-1 (comprising amino acids 1-131) expressed in E. coli (R&D Systems) (human) (UniProt P49763); assay: as above

Chain of human PlGF-1 comprising amino acids 1-137 produced in human embryonic kidney cells (human) (P49763 other isoform, or with tags, fused parts or gaps): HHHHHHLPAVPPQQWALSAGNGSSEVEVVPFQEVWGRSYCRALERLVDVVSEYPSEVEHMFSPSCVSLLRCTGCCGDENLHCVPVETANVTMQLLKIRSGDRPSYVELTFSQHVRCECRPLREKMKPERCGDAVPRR
Chain of CHO human PlGF-1 comprising amino acids 1-137 (human PlGF-1-His (1-131), CHO 6305) (human) (P49763 other isoform, or with tags, fused parts or gaps): as above
Chain of CHO human PlGF-1 fragment (comprising amino acids 17-131; ATCC PTA-8540) (human) (P49763 other isoform, or with tags, fused parts or gaps limits assumed): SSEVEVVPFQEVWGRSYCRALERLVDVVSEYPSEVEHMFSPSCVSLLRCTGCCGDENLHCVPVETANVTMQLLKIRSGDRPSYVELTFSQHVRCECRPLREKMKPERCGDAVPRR
Chain of human PlGF-1 fragment (comprising amino acids 17-131) produced in human embryonic kidney cells (human) (P49763 other isoform, or with tags, fused parts or gaps limits assumed): as above

RLU [1]: 1.13e+06 RLU
RLU [2]: 2.05e+06 RLU
RLU [3]: 1.64e+06 RLU
RLU [4]: 1.3e+06 RLU
RLU [5]: 2.19e+06 RLU
RLU [6]: 19100 RLU
RLU [7]: 18800 RLU
RLU [8]: 18700 RLU
RLU [9]: 18900 RLU
RLU [10]: 19000 RLU
RLU [11]: 246000 RLU
RLU [12]: 539000 RLU
RLU [13]: 382000 RLU
RLU [14]: 293000 RLU
RLU [15]: 570000 RLU
RLU [16]: 32100 RLU
RLU [17]: 49700 RLU
RLU [18]: 39500 RLU
RLU [19]: 34200 RLU
RLU [20]: 51900 RLU
RLU [21]: 80100 RLU
RLU [22]: 159000 RLU
RLU [23]: 112000 RLU
RLU [24]: 89500 RLU
RLU [25]: 169000 RLU
RLU [26]: 644000 RLU
RLU [27]: 1.26e+06 RLU
RLU [28]: 957000 RLU
RLU [29]: 752000 RLU
RLU [30]: 1.36e+06 RLU
Substance: rat monoclonal antibody 04 (Rat anti-Human PlGF clone number 358932, R&D Systems)
